The assay addresses T1, Band 3 / glycophorin A (Wright b, Wrb epitope) on human red blood cells (human, UniProt P02724 20-150).
T1 construct: whole, on cells; also called Band3/GPA; AE1
T1 sequence 1: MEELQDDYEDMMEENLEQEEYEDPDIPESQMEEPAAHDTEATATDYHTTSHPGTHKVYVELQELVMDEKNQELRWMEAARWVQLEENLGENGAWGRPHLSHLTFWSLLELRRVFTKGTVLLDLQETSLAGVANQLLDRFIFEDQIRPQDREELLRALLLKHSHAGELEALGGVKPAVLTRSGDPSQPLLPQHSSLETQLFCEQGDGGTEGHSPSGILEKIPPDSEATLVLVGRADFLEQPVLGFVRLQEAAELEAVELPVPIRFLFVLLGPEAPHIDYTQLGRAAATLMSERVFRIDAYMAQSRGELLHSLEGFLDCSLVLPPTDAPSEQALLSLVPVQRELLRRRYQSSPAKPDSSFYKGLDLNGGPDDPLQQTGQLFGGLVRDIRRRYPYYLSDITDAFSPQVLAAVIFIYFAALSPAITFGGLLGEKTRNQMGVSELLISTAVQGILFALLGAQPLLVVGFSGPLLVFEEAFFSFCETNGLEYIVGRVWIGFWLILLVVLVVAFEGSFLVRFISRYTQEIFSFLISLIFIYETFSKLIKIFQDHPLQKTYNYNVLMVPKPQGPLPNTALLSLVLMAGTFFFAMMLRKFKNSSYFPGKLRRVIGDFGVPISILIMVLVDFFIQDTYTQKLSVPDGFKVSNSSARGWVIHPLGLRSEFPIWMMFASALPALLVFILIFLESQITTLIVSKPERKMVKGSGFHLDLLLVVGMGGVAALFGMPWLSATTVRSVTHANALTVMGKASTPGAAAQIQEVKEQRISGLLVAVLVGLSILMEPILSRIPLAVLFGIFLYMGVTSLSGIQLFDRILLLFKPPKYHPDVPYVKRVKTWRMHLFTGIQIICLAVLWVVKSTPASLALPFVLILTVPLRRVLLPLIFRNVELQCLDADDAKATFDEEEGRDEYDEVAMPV
T1 sequence 2: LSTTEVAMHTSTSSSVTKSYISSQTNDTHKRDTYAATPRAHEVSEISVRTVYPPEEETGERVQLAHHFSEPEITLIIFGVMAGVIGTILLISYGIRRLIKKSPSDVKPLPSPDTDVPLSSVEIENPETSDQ
Put plainly: Fab/phage binding assays on human RBCs incl. rare RBC types lacking conserved antigens. The procedure: An IgG Fab/phage display library was prepared from the peripheral blood lymphocytes of a hyperimmunized macaque using homologous human V-region oligonucleotides (Siegel D L, R. M., Lee H, Blancher A., Production of large repertories of macaque mAbs to human RBCs using phage display. Transfusion, 1999. 39(S10): p. 92S, which is incorporated herein by reference). Fab/phage specific for human RBCs were isolated by panning on intact human RBCs. Monoclonal Fab/phage were grown to produce antibodies for immunoassays and their corresponding DNA was extracted for sequencing. To identify target epitopes, antibodies were screened against RBCs of known serologic phenotypes, including rare cells lacking highly conserved antigens, using standard immunohematologic techniques (Roback, J. D., Technical Manual. 2014: American Association of Blood Banks (AABB), which is incorporated herein by reference.)
Using antibody phage display, we identified non-human-primate Fab antibody fragments to antigenic determinants on human RBCs. By panning phage libraries on human RBCs, we produced a Fab/phage preparation with >10⁷ RBC-specific clones capable of agglutinating human RBCs. By performing binding assays against rare RBC types lacking highly conserved antigens and epitopes, we identified the target antigens of >30 of these clones. At least 34 clones bound the Wright b (Wrb) epitope formed by a Band 3/GPA interaction, present on the RBCs of essentially 100% of the human population. The Wrb epitope, determined by the protein sequence of Band 3, is a site of association between Band 3 with GPA, and GPA expression is simultaneously required for its presence on the membrane (Huang C H, Reid M E, Xie S S, Blumenfeld 00. Human red blood cell Wright antigens: a genetic and evolutionary perspective on glycophorin A-band 3 interaction. Blood. 1996; 87(9):3942-3947). At least 3 other clones bound to a highly-conserved epitope Rh17(Hr0) on human RhCE protein, also present on essentially 100% of the human population. Both these targets are specific for erythroid lineage (Rojewski M T, Schrezenmeier H, Flegel W A. Tissue distribution of blood group membrane proteins beyond red cells: evidence from cDNA libraries. Transfus Apher Sci.

Where a chain is given by its changes, count along the chain named.

B1: KP2-13 Fab/phage clone (anti-Band 3, Wrb) (Fab, V domains shown)
VH: EVQLLESGPGLVKPSETLSLTCAVSGGSISGGYDWSWIRQSPGKGLEWIGYIYDSRGTTNYNPSLRKRVAISIDTSRNQFSLNLRSLTAADTAVYYCARRAGYGSAYFDYWGQGVLVTVSS
VL: AAELTQSPATLSLAPGETATLSCRASQSIGTNLAWYHQKPGQPPKLLVHTAYVRATGIPNRFSGSGSRTDFTLTINSLQPEDVGVYHCQQYNDLLPLTFGGGTKIDIK
As to B1, the binding result is “binds”.

B2: KP2-22 Fab/phage clone (anti-Band 3, Wrb) (Fab, V domains shown)
VH: EVQLLESGPGLVKPSETLSLTCAVSGDSISSGYGWSWIRQTPGKGLEWIGYIGGSRGNTNYNPSLKSRVTISKDTSKNQFSLKLSSVTAADTAVYYCARRAPYWGYSYLDYWGQGVLVTVSS
VL: B1 VL with A1E, A2L, E3T, P43S, T50S, N60D, I105V, D106E
In the case of B2, the binding result is listed as “binds”.

B3: KP3-12 Fab/phage clone (anti-Band 3, Wrb) (Fab, V domains shown)
VH: EVQLLESGPGLVKPSETLSLTCAVSGNSISSAYGWHWIRQVPGKGLEWIGSIGGSRGTTNYNPSLKSRGTISEDTSKNQFSLRLRSVSAADTAVYFCARDSGYSFRYFDFWGRGVLVTVSS
VL: B1 VL with T50S
Regarding B3, the binding result is “binds”.

B4: KP2-24 Fab/phage clone (anti-Band 3, Wrb) (Fab, V domains shown)
VH: EVQLLESGPGLVKPSETLSLTCTVSGYSISSGYGWGWIRQSPGKGLEWIGYFGGSRGNTNYNPSLKSRVTISQDTSKNQFSLKLKSVTAADTGIYYCARDSGYSRRWVDYWGQGVLVTVSS
VL: B1 VL with I29V, T50S, N60D
As for B4, the binding result is reported as “binds”.

B5: KP2-15 Fab/phage clone (anti-Band 3, Wrb) (Fab, V domains shown)
VH: B1 VH with A70T, N83K
VL: AAELTQSPATLSVSPGEAATLSCRASQTVGRNLAWYQQKPGQAPKLLVHSAHFRATGIPDRFSGSGSGTDFTLTISSLEPEDAGIYHCQQYNDLLPLTFGGGTKVEIK
Consider B5, for which the binding result is given as “binds”.

B6: KP2-20 Fab/phage clone (anti-Band 3, Wrb) (Fab, V domains shown)
VH: B1 VH with A70T, N83K
VL: AAELTQSPATLSLSPGETATLSCRASQSVGSNLAWYQQKPGQAPKLLVHSGSVRATGIPDRFSGSGSRTDFTLIISSLEPEDVGVYHCQQYNDLLPLTFGGGTKVEIK
B6: the binding result was “binds”.

B7: KP2-19 Fab/phage clone (anti-Band 3, Wrb) (Fab, V domains shown)
VH: EVQLLESGPGLVKPSETLSLTCAVSGGSINGGYDWTWIRQSPGKGLQWIGWIYGSRGTTNYNPSLRNRVTISIDTSRNQFSLRLSSLTAADTAVYYCAKRVGYGNSYFDSWGQGVLVTVSS
VL: ELTLTQSPATLSLSPGERATLSCRASQSVSSRLAWYQQKPGQAPRLLIYDASSRVTGIPDRFSGSGSGTDFTLTISSLEPEDVGVYHCQQYNDLLPLTFGGGTKVEIK
For the molecule B7, the binding result is “binds”.

B8: KP3-09 Fab/phage clone (anti-Band 3, Wrb) (Fab, V domains shown)
VH: EVQLLESGPGLVKPSETLSLTCAVSSLSLSSGFAWSWIRQPPGEGLEWIGSIGGSRDNVNYNPSLKSRVTISKDTSKNQFSLRLRSVTAADTAVYYCVTIHGYRNWYLDHWGQGVLVTVST
VL: B6 VL with T10I, V29I, S31T, N32S, G51A, S52Y, V53Y, G57D, D60E, I74T
Regarding B8, the binding result is on record as “binds”.

B9: KP2-17 Fab/phage clone (anti-Band 3, Wrb) (Fab, V domains shown)
VH: EVQLLESGPGLVKPSETLSLTCAVSGYSISSGYGWTWIRQPPGKGLEWIGYIGGSRGNANYNPSLKSRVTISKDTSKNQFSLKLTSVTAADTAVYYCARDGGYGERYLEFWGQGALVTVSS
VL: AAELTQSPAFRSVTLKEKVTITCQASQSIGSSLHWYQQKPDQSPKLLIKFASQSISGVPSRFSGSGYGTDFTLTINSLEAEDAATYYCHQSSSFPWTFGQGTKVEIK
In the case of B9, the binding result was “binds”.

B10: KP2-14 Fab/phage clone (anti-Band 3, Wrb) (Fab, V domains shown)
VH: EVQLLESGPGLVKPSETLSLTCAVSGSSLSSAYGWNWIRQAPGKRLEWIGFIGGSRDNTNYNPSLRSRVTISKDTSKNHFSLKLTSVTAADTAVYFCARRGAFGNSYFDYWGQGVPVTVSS
VL: B6 VL with Q27E, N32S, Q37H, K45R, G51A, V53F, D70E, I74T, I75V
As to B10, the binding result is listed as “binds”.

B11: KP3-20 Fab/phage clone (anti-Band 3, Wrb) (Fab, V domains shown)
VH: EVQLLESGPGLVKPSETLSLTCAVSGYSISSGFAWNWIRQTPGKGLEWIGYIGGSRDNTNYNPSLKSRVTISKDTSKNQFSLKLTSMTAADTAMYYCARRGAYGNSYFDFWGQGVPVTVSS
VL: B6 VL with L33V, G51A, S52Y, V53Y, I74T
As to B11, the binding result was “binds”.

B12: KP3-06 Fab/phage clone (anti-Band 3, Wrb) (Fab, V domains shown)
VH: EVQLLESGPGLVRPSETLSVTCDVSGGSISSASWSWIRQAPGKRLEWIGAISGSGSPTNVNPSLKSRVTLSVDTSKNQLSLKLRSMTAADTAVYYCARRGGYGNRYFDYWGQGVAVTVSS
VL: B6 VL with N32S, G51A, S52Y, V53F, I74T
Consider B12, for which the binding result is given as “binds”.

B13: KP2-23 Fab/phage clone (anti-Band 3, Wrb) (Fab, V domains shown)
VH: EVQLLESGPGLVKPSETLSLTCTVSGSSLSSAYGWNWIRQPPGKGLEWIGSIGGSRDNTNYNPSLKRRVTISKDTSKNQFSLKLKSVTAADTAVYYCAQRGAYGYSYFDYWGQGVLVAVSS
VL: B5 VL with A1E, A2L, E3T, V13L, A18T, K39R, K45N, H52Y, I85V
Regarding B13, the binding result is “binds”.

B14: KP3-07 Fab/phage clone (anti-Band 3, Wrb) (Fab, V domains shown)
VH: B13 VH with A118T
VL: ELVMTQSPATLSLSPGETATLSCRASQSIGSNLAWYQQKPGQAPKLLVHSANIRATGIPDRFIGSGSRTDFTLTISSLEPEDVGVYHCQQYNDFLPLTFGGGTKVEIK
Take B14: the binding result was “binds”.

B15: KP3-19 Fab/phage clone (anti-Band 3, Wrb) (Fab, V domains shown)
VH: EVQLLESGPGLVKPSETLSLTCAVSGGSLSGGYDWYWIRQSPRKGLEYIGYIYDSRGTTNYNPSLKNRVTISIDTSKNHFSLNLKSVTAADTAVYYCARRVGYGATYFDLWGQGVLVTVSS
VL: B14 VL with I29V, I53F, P59S, I63S, F94L
Take B15: the binding result is listed as “binds”.

The values are drawn from US20210171652A1 (University of Pennsylvania, published 2021).
